Results on one substance are retold here after US20260199429A1.

The target of experiment [1] is Sturgeon PYY(1-36) (sturgeon).
In experiment [2] the target is Sea Lamprey PYY(1-36) (sea lamprey).

As to purified DPP-4 (enzyme), the DPP-4 half-life in experiment [1] is greater than 8 h; in experiment [2], greater than 8 h; with Bowfin PYY (bowfin), greater than 8 h; with Trout PYY (trout), greater than 8 h; in the experiment with Human PYY(1-36) (human), less than 2 h.
